Reference: patent US20260125472A1 (HEFEI TG IMMUNOPHARMA, published 2026)

Tests used:
[1] = molecular target: T1, PDL1 on A-375 melanoma cells, HCT-15 colorectal cancer cells and A549 lung cancer cells (UniProt Q9NZQ7 19-290, limits assumed); assay: flow cytometry, A549 cells, MFI [panel B]
T1 construct: whole, on cells
Description: (2) The tumor cells were diluted to 2×10⁶/ml with PBS and added to a 1.5 ml EP tube at a volume of 100 μl/tube, and goat serum was added thereto at 10 μl/tube. The cells were blocked at 4° C. for 30 min. The serially diluted bispecific antibodies, Cross3×Trop2, Cross303×Trop2, Cross307×Trop2, Cross308×Trop2, Cross309×Trop2, Cross310×Trop2, Cross311×Trop2, Cross312×Trop2, Cross313×Trop2, Cross314×Trop2, Cross316×Trop2, Cross317×Trop2, Cross318×Trop2, Cross323×Trop2, Cross325×Trop2, Cross326×Trop2, and Cross3×PDL1, Cross303×PDL1, Cross307×PDL1, Cross308×PDL1, Cross309×PDL1, Cross310×PDL1, Cross311×PDL1, Cross312×PDL1, Cross313×PDL1, Cross314×PDL1, Cross316×PDL1, Cross317×PDL1, Cross318×PDL1, Cross323×PDL1, Cross325×PDL1, Cross326×PDL1, and control hIgG1LALA (purchased from Bio-Tech) were added and incubated at 4° C. for 30 min. 1 ml of PBS was added to the EP tube, followed by centrifugation at 3500 rpm for 5 min at 4° C. The supernatant was discarded, and the cells were washed again with PBS. After centrifugation, the supernatant was completely discarded, and the cells were resuspended with PBS at 100 μl/tube. Alexa-647-labeled goat anti-human IgG secondary antibody (purchased from Jackson lab) was added at 1 μl/tube and incubated at 4° C. in the dark for 30 min. The cells were washed twice with PBS, and the supernatant was completely discarded after centrifugation. The cells were resuspended with PBS at 200 μl/tube and assay was performed using the flow cytometry.

PDL1 protein = molecular target: T2, PDL1 protein (UniProt Q9NZQ7 19-238); assay: ELISA, coated PDL1 protein, OD450 [panel A]
T2 construct: Bought recombinant protein
Description: (3) PDL1 protein (purchased from Acro) was diluted to 2 μg/ml with PBS buffer, added to a 96-well plate at a volume of 100 μL/well, and placed at 4° C. overnight. The PBS buffer in the 96-well plate was aspirated, and the plate was washed 6 times with PBST (pH 7.2 PBS containing 0.10% Tween 20) buffer. Then, PBS/10% BSA was added at 200 μL/well and incubated at 37° C. for 2 h for blocking. The blocking solution was removed, and the plate was washed six times with PBST. Then, the to-be-tested bispecific antibodies serially diluted with PBST/0.05% BSA, Cross3×PDL1, Cross303×PDL1, Cross307×PDL1, Cross308×PDL1, Cross309×PDL1, Cross310×PDL1, Cross311×PDL1, Cross312×PDL1, Cross313×PDL1, Cross314×PDL1, Cross316×PDL1, Cross317×PDL1, Cross318×PDL1, Cross323×PDL1, Cross325×PDL1, Cross326×PDL1, and control IgG1LALA (purchased from Bio-Tech) were added at 100 μL/well, and incubated at 37° C. for 1 h. The reaction system was removed, and the plate was washed 6 times with PBST. Then, the cells were incubated at 37° C. for 1 h with HRP (horseradish peroxidase)-labeled anti-human secondary antibody (Fab specific) (purchased from Sigma) serially diluted with PBST/0.05% BSA at 100 μL/well. After the plate was washed six times with PBST, TMB (tetramethylbenzidine) was added at 80 μL/well and incubated at room temperature for 3 min. 4 M sulfuric acid was added at 80 μL/well to terminate the reaction. The absorbance was read at 450 nm using a microplate reader.

T1 sequence (Q9NZQ7 19-290 limits assumed): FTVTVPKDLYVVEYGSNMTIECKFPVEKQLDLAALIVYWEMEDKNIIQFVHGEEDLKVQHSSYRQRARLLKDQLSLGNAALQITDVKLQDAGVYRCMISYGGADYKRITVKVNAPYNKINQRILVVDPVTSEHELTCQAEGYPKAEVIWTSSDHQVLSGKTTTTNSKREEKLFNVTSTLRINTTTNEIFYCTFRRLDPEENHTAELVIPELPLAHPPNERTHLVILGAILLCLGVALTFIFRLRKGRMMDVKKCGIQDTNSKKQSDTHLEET
T2 sequence (Q9NZQ7 19-238 limits assumed): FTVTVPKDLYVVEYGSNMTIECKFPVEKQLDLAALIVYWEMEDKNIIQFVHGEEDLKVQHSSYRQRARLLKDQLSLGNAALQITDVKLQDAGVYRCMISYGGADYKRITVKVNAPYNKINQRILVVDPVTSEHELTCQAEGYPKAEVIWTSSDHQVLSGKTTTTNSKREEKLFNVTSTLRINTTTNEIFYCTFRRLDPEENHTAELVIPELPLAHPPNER

B1: Cross307×PDL1 (bispecific antibody, human IgG1, kappa, L234A L235A)
scFv: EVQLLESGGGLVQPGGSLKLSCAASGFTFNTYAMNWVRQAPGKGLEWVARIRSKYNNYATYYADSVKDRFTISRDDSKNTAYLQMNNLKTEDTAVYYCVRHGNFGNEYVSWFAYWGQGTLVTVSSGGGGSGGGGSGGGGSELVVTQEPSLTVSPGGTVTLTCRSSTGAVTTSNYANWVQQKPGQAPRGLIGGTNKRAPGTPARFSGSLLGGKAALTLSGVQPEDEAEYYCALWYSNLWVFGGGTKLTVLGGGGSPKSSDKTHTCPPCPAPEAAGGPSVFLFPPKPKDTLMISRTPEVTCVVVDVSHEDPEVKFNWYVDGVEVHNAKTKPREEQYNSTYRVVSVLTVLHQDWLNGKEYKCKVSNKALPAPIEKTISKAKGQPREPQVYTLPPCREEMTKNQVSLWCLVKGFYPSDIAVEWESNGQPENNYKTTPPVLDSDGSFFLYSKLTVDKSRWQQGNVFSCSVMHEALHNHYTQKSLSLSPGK
heavy: QVQLVQSGAEVKKPGASVKVSCKASGYSFTGYYMHWVRQAPGQGLEWIGRINPYNGATTYSQNFKDRATMTVDTSISTAYMELSRLRSDDTAVYYCVPTGMGYFLMDYWGQGTLVTVSSASTKGPSVFPLAPSSKSTSGGTAALGCLVKDYFPEPVTVSWNSGALTSGVHTFPAVLQSSGLYSLSSVVTVPSSSLGTQTYICNVNHKPSNTKVDKKVEPKSCDKTHTCPPCPAPEAAGGPSVFLFPPKPKDTLMISRTPEVTCVVVDVSHEDPEVKFNWYVDGVEVHNAKTKPREEQYNSTYRVVSVLTVLHQDWLNGKEYKCKVSNKALPAPIEKTISKAKGQPREPQVCTLPPSREEMTKNQVSLSCAVKGFYPSDIAVEWESNGQPENNYKTTPPVLDSDGSFFLVSKLTVDKSRWQQGNVFSCSVMHEALHNHYTQKSLSLSPGK
light: DIQLTQSPSFLSASVGDRVTITCKASQDVGSAVVWYQQKPGKAPKLLIYWASTRHTGVPSRFSGSGSGTEFTLTISSLQPEDFATYFCQQFTSYPTFGQGTKLEIKRTVAAPSVFIFPPSDEQLKSGTASVVCLLNNFYPREAKVQWKVDNALQSGNSQESVTEQDSKDSTYSLSSTLTLSKADYEKHKVYACEVTHQGLSSPVTKSFNRGEC
EC50 (read off the curve) [1]: ~1 µg/mL
EC50 (read off the curve) (PDL1 protein): ~0.2 µg/mL

B2: Cross308×PDL1 (bispecific antibody, human IgG1, kappa, L234A L235A)
scFv: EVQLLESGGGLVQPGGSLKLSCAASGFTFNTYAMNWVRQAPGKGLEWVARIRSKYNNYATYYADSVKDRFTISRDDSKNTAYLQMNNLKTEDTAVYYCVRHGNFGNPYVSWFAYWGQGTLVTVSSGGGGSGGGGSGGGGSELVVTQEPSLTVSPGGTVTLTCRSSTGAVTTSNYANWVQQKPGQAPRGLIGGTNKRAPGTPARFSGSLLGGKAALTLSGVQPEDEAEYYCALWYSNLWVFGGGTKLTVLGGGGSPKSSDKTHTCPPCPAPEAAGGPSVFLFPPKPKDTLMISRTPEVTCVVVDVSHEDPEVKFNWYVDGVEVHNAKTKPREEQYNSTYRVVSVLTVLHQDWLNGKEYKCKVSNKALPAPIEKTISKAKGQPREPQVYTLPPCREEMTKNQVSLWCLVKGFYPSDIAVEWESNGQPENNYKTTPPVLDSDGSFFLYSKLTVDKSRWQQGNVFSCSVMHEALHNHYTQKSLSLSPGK
heavy: QVQLVQSGAEVKKPGASVKVSCKASGYSFTGYYMHWVRQAPGQGLEWIGRINPYNGATTYSQNFKDRATMTVDTSISTAYMELSRLRSDDTAVYYCVPTGMGYFLMDYWGQGTLVTVSSASTKGPSVFPLAPSSKSTSGGTAALGCLVKDYFPEPVTVSWNSGALTSGVHTFPAVLQSSGLYSLSSVVTVPSSSLGTQTYICNVNHKPSNTKVDKKVEPKSCDKTHTCPPCPAPEAAGGPSVFLFPPKPKDTLMISRTPEVTCVVVDVSHEDPEVKFNWYVDGVEVHNAKTKPREEQYNSTYRVVSVLTVLHQDWLNGKEYKCKVSNKALPAPIEKTISKAKGQPREPQVCTLPPSREEMTKNQVSLSCAVKGFYPSDIAVEWESNGQPENNYKTTPPVLDSDGSFFLVSKLTVDKSRWQQGNVFSCSVMHEALHNHYTQKSLSLSPGK
light: DIQLTQSPSFLSASVGDRVTITCKASQDVGSAVVWYQQKPGKAPKLLIYWASTRHTGVPSRFSGSGSGTEFTLTISSLQPEDFATYFCQQFTSYPTFGQGTKLEIKRTVAAPSVFIFPPSDEQLKSGTASVVCLLNNFYPREAKVQWKVDNALQSGNSQESVTEQDSKDSTYSLSSTLTLSKADYEKHKVYACEVTHQGLSSPVTKSFNRGEC
EC50 (read off the curve) [1]: ~1 µg/mL
EC50 (read off the curve) (PDL1 protein): ~0.2 µg/mL

B3: Cross311×PDL1 (bispecific antibody, human IgG1, kappa, L234A L235A)
scFv: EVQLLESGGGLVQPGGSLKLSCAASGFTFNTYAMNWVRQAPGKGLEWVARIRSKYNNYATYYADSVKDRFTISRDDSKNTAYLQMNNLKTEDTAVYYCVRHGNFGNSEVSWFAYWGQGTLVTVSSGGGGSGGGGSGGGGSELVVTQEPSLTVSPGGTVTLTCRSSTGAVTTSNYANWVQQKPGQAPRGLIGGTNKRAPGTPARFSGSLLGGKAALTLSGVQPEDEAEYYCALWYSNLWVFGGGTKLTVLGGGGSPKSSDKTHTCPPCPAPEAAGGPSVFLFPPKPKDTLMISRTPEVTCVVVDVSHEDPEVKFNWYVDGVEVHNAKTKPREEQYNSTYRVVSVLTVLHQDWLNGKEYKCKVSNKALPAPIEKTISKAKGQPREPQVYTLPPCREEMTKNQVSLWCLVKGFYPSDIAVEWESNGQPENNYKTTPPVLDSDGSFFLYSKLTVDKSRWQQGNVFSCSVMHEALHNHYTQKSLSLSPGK
heavy: QVQLVQSGAEVKKPGASVKVSCKASGYSFTGYYMHWVRQAPGQGLEWIGRINPYNGATTYSQNFKDRATMTVDTSISTAYMELSRLRSDDTAVYYCVPTGMGYFLMDYWGQGTLVTVSSASTKGPSVFPLAPSSKSTSGGTAALGCLVKDYFPEPVTVSWNSGALTSGVHTFPAVLQSSGLYSLSSVVTVPSSSLGTQTYICNVNHKPSNTKVDKKVEPKSCDKTHTCPPCPAPEAAGGPSVFLFPPKPKDTLMISRTPEVTCVVVDVSHEDPEVKFNWYVDGVEVHNAKTKPREEQYNSTYRVVSVLTVLHQDWLNGKEYKCKVSNKALPAPIEKTISKAKGQPREPQVCTLPPSREEMTKNQVSLSCAVKGFYPSDIAVEWESNGQPENNYKTTPPVLDSDGSFFLVSKLTVDKSRWQQGNVFSCSVMHEALHNHYTQKSLSLSPGK
light: DIQLTQSPSFLSASVGDRVTITCKASQDVGSAVVWYQQKPGKAPKLLIYWASTRHTGVPSRFSGSGSGTEFTLTISSLQPEDFATYFCQQFTSYPTFGQGTKLEIKRTVAAPSVFIFPPSDEQLKSGTASVVCLLNNFYPREAKVQWKVDNALQSGNSQESVTEQDSKDSTYSLSSTLTLSKADYEKHKVYACEVTHQGLSSPVTKSFNRGEC
EC50 (read off the curve) [1]: ~1 µg/mL
EC50 (read off the curve) (PDL1 protein): ~0.2 µg/mL
